# Positions of bridges follow the written chain, without caps; N, C: chain ends. Non-standard residues stand in square brackets, D forms with d. Trp(7-Me) = Cc1cccc2c(C[C@H](N)C(=O)O)c[nH]c12; 2Nal = N[C@@H](Cc1ccc2ccccc2c1)C(=O)O; AEF = NCCOc1ccc(C[C@H](N)C(=O)O)cc1; Cit = NC(=O)NCCC[C@H](N)C(=O)O; Pen = CC(C)(S)[C@H](N)C(=O)O; αMeK = C[C@](N)(CCCCN)C(=O)O; βAla = NCCC(=O)O
# T1: interleukin-23 receptor (IL-23R) (human, UniProt Q5VWK5 24-629)
# T1 sequence (looked up): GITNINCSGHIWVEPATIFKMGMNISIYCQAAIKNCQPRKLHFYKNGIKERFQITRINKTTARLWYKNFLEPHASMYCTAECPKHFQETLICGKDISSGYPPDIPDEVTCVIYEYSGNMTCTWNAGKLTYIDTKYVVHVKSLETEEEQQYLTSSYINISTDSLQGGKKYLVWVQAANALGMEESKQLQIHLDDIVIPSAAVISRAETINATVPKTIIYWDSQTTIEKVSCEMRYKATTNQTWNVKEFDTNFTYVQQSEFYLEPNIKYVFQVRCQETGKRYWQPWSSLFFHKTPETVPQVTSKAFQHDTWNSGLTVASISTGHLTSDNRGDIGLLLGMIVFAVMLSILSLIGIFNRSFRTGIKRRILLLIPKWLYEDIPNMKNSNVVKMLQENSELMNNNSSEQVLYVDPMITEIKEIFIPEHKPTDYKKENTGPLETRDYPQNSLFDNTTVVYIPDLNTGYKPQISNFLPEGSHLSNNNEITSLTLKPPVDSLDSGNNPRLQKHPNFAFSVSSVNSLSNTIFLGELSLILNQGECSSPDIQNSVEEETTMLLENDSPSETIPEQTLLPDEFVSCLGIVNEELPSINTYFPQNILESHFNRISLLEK
# B1: Peptide of SEQ ID NO: 255 (peptide)
# peptide: XNTXKXXXXKNI
# modifications: Ac-[Pen]-NT-[W(7-Me)]-[Lys(Ac)]-[Pen]-Phe[4-(2-aminoethoxy)]-[2-Nal]-[a-MeLys]-[Lys(Ac)]-N-I-NH2; Pen-Pen disulfide
# B2: Peptide of SEQ ID NO: 253 (peptide)
# peptide: XNTXKXXXXKNP
# modifications: Ac-[Pen]-NT-[W(7-Me)]-[Lys(Ac)]-[Pen]-Phe[4-(2-aminoethoxy)]-[2-Nal]-[a-MeLys]-[Lys(Ac)]-N-P-NH2; Pen-Pen disulfide
# B3: Peptide of SEQ ID NO: 276 (peptide)
# peptide: XNTXQXXXXKNX
# modifications: Ac-[Pen]-N-T-[W(7-Me)]-Q-[Pen]-Phe[4-(2-aminoethoxy)]-[2-Nal]-[DiethylGly]-[Lys(Ac)]-N-[bA]-NH2; Pen-Pen disulfide
# B4: Peptide of SEQ ID NO: 275 (peptide)
# peptide: XNTXQXXXXKNX
# modifications: Ac-[Pen]-N-T-[W(7-Me)]-Q-[Pen]-Phe[4-(2-aminoethoxy)]-[2-Nal]-[Spiral_Pip]-[Lys(Ac)]-N-[bA]-NH2; Pen-Pen disulfide
# B5: Peptide of SEQ ID NO: 260 (peptide)
# peptide: Ac-[Pen]NT[Trp(7-Me)][Cit][Pen][AEF][2Nal][αMeK]K(Ac)NS-NH2
# modifications: disulfide 1-6
# SMILES: CC(=O)NCCCC[C@H](NC(=O)[C@](C)(CCCCN)NC(=O)[C@H](Cc1ccc2ccccc2c1)NC(=O)[C@H](Cc1ccc(OCCN)cc1)NC(=O)[C@H]1NC(=O)[C@H](CCCNC(N)=O)NC(=O)[C@H](Cc2c[nH]c3c(C)cccc23)NC(=O)[C@H]([C@@H](C)O)NC(=O)[C@H](CC(N)=O)NC(=O)[C@@H](NC(C)=O)C(C)(C)SSC1(C)C)C(=O)N[C@@H](CC(N)=O)C(=O)N[C@@H](CO)C(N)=O
# B6: Peptide of SEQ ID NO: 277 (peptide)
# peptide: XNTXQXXXXKNX
# modifications: Ac-[Pen]-N-T-[W(7-Me)]-Q-[Pen]-Phe[4-(2-aminoethoxy)]-[2-Nal]-[Acbc]-[Lys(Ac)]-N-[bA]-NH2; Pen-Pen disulfide
# B7: Peptide of SEQ ID NO: 257 (peptide)
# peptide: Ac-[Pen]NT[Trp(7-Me)][Cit][Pen][AEF][2Nal][αMeK]K(Ac)N[dF]-NH2
# modifications: disulfide 1-6
# SMILES: CC(=O)NCCCC[C@H](NC(=O)[C@](C)(CCCCN)NC(=O)[C@H](Cc1ccc2ccccc2c1)NC(=O)[C@H](Cc1ccc(OCCN)cc1)NC(=O)[C@H]1NC(=O)[C@H](CCCNC(N)=O)NC(=O)[C@H](Cc2c[nH]c3c(C)cccc23)NC(=O)[C@H]([C@@H](C)O)NC(=O)[C@H](CC(N)=O)NC(=O)[C@@H](NC(C)=O)C(C)(C)SSC1(C)C)C(=O)N[C@@H](CC(N)=O)C(=O)N[C@H](Cc1ccccc1)C(N)=O
# B8: Peptide of SEQ ID NO: 254 (peptide)
# peptide: XNTXKXXXXKNP
# modifications: Ac-[Pen]-NT-[W(7-Me)]-[Lys(Ac)]-[Pen]-Phe[4-(2-aminoethoxy)]-[2-Nal]-[a-MeLys]-[Lys(Ac)]-N-[(D)Pro]-NH2; Pen-Pen disulfide
# B9: Peptide of SEQ ID NO: 246 (peptide)
# peptide: XNTXKXXXXKNX
# modifications: Ac-[Pen]-NT-[W(7-Me)]-[Lys(Ac)]-[Pen]-Phe[4-(2-aminoethoxy)]-[2-Nal]-[a-MeLys]-[Lys(Ac)]-N-[NMeArg]-NH2; Pen-Pen disulfide
# B10: Peptide of SEQ ID NO: 266 (peptide)
# peptide: Ac-[Pen]NT[Trp(7-Me)][Cit][Pen][AEF][2Nal][αMeK]K(Ac)NY-NH2
# modifications: disulfide 1-6
# SMILES: CC(=O)NCCCC[C@H](NC(=O)[C@](C)(CCCCN)NC(=O)[C@H](Cc1ccc2ccccc2c1)NC(=O)[C@H](Cc1ccc(OCCN)cc1)NC(=O)[C@H]1NC(=O)[C@H](CCCNC(N)=O)NC(=O)[C@H](Cc2c[nH]c3c(C)cccc23)NC(=O)[C@H]([C@@H](C)O)NC(=O)[C@H](CC(N)=O)NC(=O)[C@@H](NC(C)=O)C(C)(C)SSC1(C)C)C(=O)N[C@@H](CC(N)=O)C(=O)N[C@@H](Cc1ccc(O)cc1)C(N)=O
# B11: Peptide of SEQ ID NO: 278 (peptide)
# peptide: XNTXQXXXXKNX
# modifications: Ac-[Pen]-N-T-[W(7-Me)]-Q-[Pen]-Phe[4-(2-aminoethoxy)]-[2-Nal]-[a-MeOrn]-[Lys(Ac)]-N-[bA]-NH2; Pen-Pen disulfide
# B12: Peptide of SEQ ID NO: 274 (peptide)
# peptide: XNTXQXXXXKNX
# modifications: Ac-[Pen]-N-T-[W(7-Me)]-Q-[Pen]-Phe[4-(2-aminoethoxy)]-[2-Nal]-[Achc]-[Lys(Ac)]-N-[bA]-NH2; Pen-Pen disulfide
# B13: Peptide of SEQ ID NO: 268 (peptide)
# peptide: Ac-[Pen]NT[Trp(7-Me)][Cit][Pen][AEF][2Nal][αMeK]K(Ac)[βAla][βAla]-NH2
# modifications: disulfide 1-6
# SMILES: CC(=O)NCCCC[C@H](NC(=O)[C@](C)(CCCCN)NC(=O)[C@H](Cc1ccc2ccccc2c1)NC(=O)[C@H](Cc1ccc(OCCN)cc1)NC(=O)[C@H]1NC(=O)[C@H](CCCNC(N)=O)NC(=O)[C@H](Cc2c[nH]c3c(C)cccc23)NC(=O)[C@H]([C@@H](C)O)NC(=O)[C@H](CC(N)=O)NC(=O)[C@@H](NC(C)=O)C(C)(C)SSC1(C)C)C(=O)NCCC(=O)NCCC(N)=O
# B14: Peptide of SEQ ID NO: 262 (peptide)
# peptide: Ac-[Pen]NT[Trp(7-Me)][Cit][Pen][AEF][2Nal][αMeK]K(Ac)NT-NH2
# modifications: disulfide 1-6
# SMILES: CC(=O)NCCCC[C@H](NC(=O)[C@](C)(CCCCN)NC(=O)[C@H](Cc1ccc2ccccc2c1)NC(=O)[C@H](Cc1ccc(OCCN)cc1)NC(=O)[C@H]1NC(=O)[C@H](CCCNC(N)=O)NC(=O)[C@H](Cc2c[nH]c3c(C)cccc23)NC(=O)[C@H]([C@@H](C)O)NC(=O)[C@H](CC(N)=O)NC(=O)[C@@H](NC(C)=O)C(C)(C)SSC1(C)C)C(=O)N[C@@H](CC(N)=O)C(=O)N[C@H](C(N)=O)[C@@H](C)O
# B15: Peptide of SEQ ID NO: 267 (peptide)
# peptide: XNTXQXXXXKNX
# modifications: Ac-[Pen]-NT-[W(7-Me)]-Q-[Pen]-Phe[4-(2-aminoethoxy)]-[2-Nal]-[a-MeLys]-[Lys(Ac)]-N-[bA]-NH2; Pen-Pen disulfide
# B16: Peptide of SEQ ID NO: 249 (peptide)
# peptide: XNTXKXXXXKNX
# modifications: Ac-[Pen]-NT-[W(7-Me)]-[Lys(Ac)]-[Pen]-Phe[4-(2-aminoethoxy)]-[2-Nal]-[a-MeLys]-[Lys(Ac)]-N-[Cit]-NH2; Pen-Pen disulfide
# B17: Peptide of SEQ ID NO: 269 (peptide)
# peptide: XNTXQXXXXKLX
# modifications: Ac-[Pen]-N-T-[W(7-Me)]-Q-[Pen]-Phe[4-(2-aminoethoxy)]-[2-Nal]-[a-MeLys]-[Lys(Ac)]-L-[bA]-NH2; Pen-Pen disulfide
# B18: Peptide of SEQ ID NO: 272 (peptide)
# peptide: XNTXKXXXXKHX
# modifications: Ac-[Pen]-N-T-[W(7-Me)]-[Lys(Ac)]-[Pen]-Phe[4-(2-aminoethoxy)]-[2-Nal]-[a-MeLys]-[Lys(Ac)]-H-[bA]-NH2; Pen-Pen disulfide
# B19: Peptide of SEQ ID NO: 273 (peptide)
# peptide: XNTXKXXXXEXX
# modifications: Ac-[Pen]-N-T-[W(7-Me)]-[Lys(Ac)]-[Pen]-Phe[4-(2-aminoethoxy)]-[2-Nal]-[a-MeLys]-E-[bA]-[bA]-NH2; Pen-Pen disulfide
# B20: Peptide of SEQ ID NO: 250 (peptide)
# peptide: XNTXKXXXXKNV
# modifications: Ac-[Pen]-NT-[W(7-Me)]-[Lys(Ac)]-[Pen]-Phe[4-(2-aminoethoxy)]-[2-Nal]-[a-MeLys]-[Lys(Ac)]-N-V-NH2; Pen-Pen disulfide
# B21: Peptide of SEQ ID NO: 270 (peptide)
# peptide: XNTXKXXXXKXX
# modifications: Ac-[Pen]-N-T-[W(7-Me)]-[Lys(Ac)]-[Pen]-Phe[4-(2-aminoethoxy)]-[2-Nal]-[a-MeLys]-[Lys(Ac)]-[bA]-[bA]-NH2; Pen-Pen disulfide
# B22: Peptide of SEQ ID NO: 271 (peptide)
# peptide: XNTXKXXXXKSX
# modifications: Ac-[Pen]-N-T-[W(7-Me)]-[Lys(Ac)]-[Pen]-Phe[4-(2-aminoethoxy)]-[2-Nal]-[a-MeLys]-[Lys(Ac)]-S-[bA]-NH2; Pen-Pen disulfide
# B23: Peptide of SEQ ID NO: 263 (peptide)
# peptide: Ac-[Pen]NT[Trp(7-Me)][Cit][Pen][AEF][2Nal][αMeK]K(Ac)N[dT]-NH2
# modifications: disulfide 1-6
# SMILES: CC(=O)NCCCC[C@H](NC(=O)[C@](C)(CCCCN)NC(=O)[C@H](Cc1ccc2ccccc2c1)NC(=O)[C@H](Cc1ccc(OCCN)cc1)NC(=O)[C@H]1NC(=O)[C@H](CCCNC(N)=O)NC(=O)[C@H](Cc2c[nH]c3c(C)cccc23)NC(=O)[C@H]([C@@H](C)O)NC(=O)[C@H](CC(N)=O)NC(=O)[C@@H](NC(C)=O)C(C)(C)SSC1(C)C)C(=O)N[C@@H](CC(N)=O)C(=O)N[C@@H](C(N)=O)[C@H](C)O
# B24: Peptide of SEQ ID NO: 279 (peptide)
# peptide: XNTXQXXXXXXX
# modifications: Ac-[Pen]-N-T-[W(7-Me)]-Q-[Pen]-Phe[4-(2-aminoethoxy)]-[2-Nal]-[a-MeLys]-[Cit]-[bA]-[bA]-NH2; Pen-Pen disulfide
# Biological target: T1, interleukin-23 receptor (IL-23R)
# Assay: cell-based or functional assay
row,Binder,pStat3 HTRF IC50 [nM]
1,B1,2.5
2,B2,1.44
3,B3,0.564
4,B4,2.17
5,B5,0.699
6,B6,0.639
7,B7,3.88
8,B8,3.65
9,B9,4.83
10,B10,2.78
11,B11,0.849
12,B12,0.484
13,B13,3.24
14,B14,0.996
15,B15,0.506
16,B16,0.639
17,Ac-[Pen]NT[Trp(7-Me)][Cit][Pen][AEF][2Nal][αMeK]K(Ac)N[dR]-NH2 (disulfide 1-6) [Peptide of SEQ ID NO: 256],0.754
18,B17,10.1
19,B18,7.13
20,B19,2.69
21,B20,1.82
22,B21,4.43
23,B22,1.91
24,B23,0.603
25,B24,5.97

# Source: patent US20220041658A1 (PROTAGONIST THERAPEUTICS, published 2022)
